Source: the supplement of paper PMC11316812
± gives the standard deviation of the averaged measurements.

How the values were obtained:
MCF7 = assay: percentage of EdU-negative (G0-arrested) nuclei per well, 72 h; higher = more G0 arrest; settings: reference: sequence is the full UniProt precursor, the tested protein was the secreted form or ectodomain
hTERT-HMEC = assay: as above; settings: reference: sequence is the full UniProt precursor, the tested protein was the secreted form or ectodomain
[1] = protein concentration 0.0225 µM
[2] = protein concentration 0.0257143 µM
[3] = protein concentration 0.257143 µM
[4] = protein concentration 0.01925 µM
[5] = protein concentration 0.1925 µM
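Note: secreted proteins added to cultured cells, EdU pulse at the end, nuclei found by Hoechst imaging, EdU status from nuclear versus surrounding ring intensity ratio, PBS as neutral control.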

| Sequence | percentage of EdU-negative (MCF7; [1]) [%] | percentage of EdU-negative (MCF7; protein concentration 0.225 µM) [%] | percentage of EdU-negative (hTERT-HMEC; [1]) [%] | percentage of EdU-negative (hTERT-HMEC; protein concentration 0.225 µM) [%] | other results |
| --- | --- | --- | --- | --- | --- |
| MAGRLLGKALAAVSLSLALASVTIRSSRCRGIQAFRNSFSSSWFHLNTNVMSGSNGSKENSHNKARTSPYPGSKVERSQVPNEKVGWLVEWQDYKPVEYTAVSVLAGPRWADPQISESNFSPKFNEKDGHVERKSKNGLYEIENGRPRNPAGRTGLVGRGLLGRWGPNHAADPIITRWKRDSSGNKIMHPVSGKHILQFVAIKRKDCGEWAIPGGMVDPGEKISATLKREFGEEALNSLQKTSAEKREIEEKLHKLFSQDHLVIYKGYVDDPRNTDNAWMETEAVNYHDETGEIMDNLMLEAGDDAGKVKWVDINDKLKLYASHSQFIKLVAEKRDAHWSEDSEADCHAL [Q9BW91] | 26.4 ± 1.5 | 26.1 ± 0.32 | 4.99 ± 0.81 | 5.67 ± 0.54 |  |
| MAGSPTCLTLIYILWQLTGSAASGPVKELVGSVGGAVTFPLKSKVKQVDSIVWTFNTTPLVTIQPEGGTIIVTQNRNRERVDFPDGGYSLKLSKLKKNDSGIYYVGIYSSSLQQPSTQEYVLHVYEHLSKPKVTMGLQSNKNGTCVTNLTCCMEHGEEDVIYTWKALGQAANESHNGSILPISWRWGESDMTFICVARNPVSRNFSSPILARKLCEGAADDPDSSMVLLCLLLVPLLLSLFVLGLFLWFLKRERQEEYIEEKKRVDICRETPNICPHSGENTEYDTIPHTNRTILKEDPANTVYSTVEIPKKMENPHSLLTMPDTPRLFAYENVI [Q9NQ25] | 27.18 ± 0.048 | 27.7 ± 1.3 | 5 ± 0.45 | 6.3 ± 0.74 |  |
| MAHRPPSPALASVLLALLLSGAARAAEIVGGHEAQPHSRPYMASLQMRGNPGSHFCGGTLIHPSFVLTAAHCLRDIPQRLVNVVLGAHNVRTQEPTQQHFSVAQVFLNNYDAENKLNDVLLIQLSSPANLSASVATVQLPQQDQPVPHGTQCLAMGWGRVGAHDPPAQVLQELNVTVVTFFCRPHNICTFVPRRKAGICFGDSGGPLICDGIIQGIDSFVIWGCATRLFPDFFTRVALYVDWIRSTLRRVEAKGRP | 25.4 ± 0.57 | 28.984 ± 0.026 | 4.55 ± 0.18 | 4.49 ± 0.19 |  |
| MAILMLSLQLILLLIPSISHEAHKTSLSSWKHDQDWANVSNMTFSNGKLRVKGIYYRNADICSRHRVTSAGLTLQDLQLWCNLRSVARGQIPSTL [Q6UY13] | 26.9 ± 1.6 | 27.81 ± 0.22 | 4.87 ± 0.78 | 5.92 ± 0.39 |  |
| MAKDFQDIQQLSSEENDHPFHQGEGPGTRRLNPRRGNPFLKGPPPAQPLAQRLCSMVCFSLLALSFNILLLVVICVTGSQSEGHGGAQLQAELRSLKEAFSNFSSSTLTEVQAISTHGGSVGDKITSLGAKLEKQQQDLKADHDALLFHLKHFPVDLRFVACQMELLHSNGSQRTCCPVNWVEHQGSCYWFSHSGKAWAEAEKYCQLENAHLVVINSWEEQKFIVQHTNPFNTWIGLTDSDGSWKWVDGTDYRHNYKNWAVTQPDNWHGHELGGSEDCVEVQPDGRWNDDFCLQVYRWVCEKRRNATGEVA |  |  |  |  | percentage of EdU-negative (MCF7; [2]): 27 ± 1.8%; percentage of EdU-negative (MCF7; [3]): 25.3 ± 2.7%; percentage of EdU-negative (hTERT-HMEC; [2]): 4.62 ± 0.061%; percentage of EdU-negative (hTERT-HMEC; [3]): 5.93 ± 0.22% |
| MAKGFYISKSLGILGILLGVAAVCTIIALSVVYSQEKNKNANSSPVASTTPSASATTNPASATTLDQSKAWNRYRLPNTLKPDSYRVTLRPYLTPNDRGLYVFKGSSTVRFTCKEATDVIIIHSKKLNYTLSQGHRVVLRGVGGSQPPDIDKTELVEPTEYLVVHLKGSLVKDSQYEMDSEFEGELADDLAGFYRSEYMEGNVRKVVATTQMQAADARKSFPCFDEPAMKAEFNITLIHPKDLTALSNMLPKGPSTPLPEDPNWNVTEFHTTPKMSTYLLAFIVSEFDYVEKQASNGVLIRIWARPSAIAAGHGDYALNVTGPILNFFAGHYDTPYPLPKSDQIGLPDFNAGAMENWGLVTYRENSLLFDPLSSSSSNKERVVTVIAHELAHQWFGNLVTIEWWNDLWLNEGFASYVEYLGADYAEPTWNLKDLMVLNDVYRVMAVDALASSHPLSTPASEINTPAQISELFDAISYSKGASVLRMLSSFLSEDVFKQGLASYLHTFAYQNTIYLNLWDHLQEAVNNRSIQLPTTVRDIMNRWTLQMGFPVITVDTSTGTLSQEHFLLDPDSNVTRPSEFNYVWIVPITSIRDGRQQQDYWLIDVRAQNDLFSTSGNEWVLLNLNVTGYYRVNYDEENWRKIQTQLQRDHSAIPVINRAQIINDAFNLASAHKVPVTLALNNTLFLIEERQYMPWEAALSSLSYFKLMFDRSEVYGPMKNYLKKQVTPLFIHFRNNTNNWREIPENLMDQYSEVNAISTACSNGVPECEEMVSGLFKQWMENPNNNPIHPNLRSTVYCNAIAQGGEEEWDFAWEQFRNATLVNEADKLRAALACSKELWILNRYLSYTLNPDLIRKQDATSTIISITNNVIGQGLVWDFVQSNWKKLFNDYGGGSFSFSNLIQAVTRRFSTEYELQQLEQFKKDNEETGFGSGTRALEQALEKTKANIKWVKENKEVVLQWFTENSK |  |  |  |  | percentage of EdU-negative (MCF7; [4]): 21.5 ± 1.1%; percentage of EdU-negative (MCF7; [5]): 23.6 ± 1.2%; percentage of EdU-negative (hTERT-HMEC; [4]): 5.56 ± 1.4%; percentage of EdU-negative (hTERT-HMEC; [5]): 7.09 ± 0.27% |
